Measurements reported in the supplement of paper PMC12042874.
± gives the uncertainty stated by the source.

Experiment: amyloid nucleation score (Sup35N fusion, yeast selection) (log enrichment); library NNK2; higher = more nucleation; inactive = no reads after selection
Outline: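 The nucleation score, computed with DiMSum, is the log enrichment of output over input reads, centred on the mode score of non-aggregating sequences. Sequences with under 100 input reads were dropped. Reads were generated by Illumina sequencing of plasmid inserts from psi-negative yeast with Sup35N fused to peptides of 20 random codons, induced with 100 μM copper sulfate for 24 hours and grown 7 days at 30°C on medium lacking adenine and uracil.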

QFFTLFDVSRRLHFNTWLRL and QFHADSRQGFNVSEMLCWDG are within error of each other in amyloid nucleation score: -1.14 ± 0.64 for the first, -0.393 ± 0.49 for the second.

First: QFSLSFSDFCKSLW
Second: QFTCYTVYNGYWA
The amyloid nucleation score of the first is higher: 6.287 ± 0.03 for the first, 3.28 ± 0.15 for the second.

QGCMVSRNRVQHVVGSGLRW and QGFYDGQPV are within error of each other in amyloid nucleation score: 0.727 ± 0.38 for the first, 0.203 ± 0.5 for the second.

Going from QGGLDRMYGSDVVYFKDTYP to QGIRALRLYKFLTTSLILLI, the amyloid nucleation score falls from 0.379 ± 0.54 to -1.42 ± 1.1.

Going from QGLCRV to QGLIFVSLFRCCSLCRQYTD, the amyloid nucleation score falls from 4 ± 0.069 to 2.72 ± 0.18.

First: QGPHARRHPTFRHKLYVLVI
Second: QGRRISKLC
The amyloid nucleation score of the first is higher: 3.54 ± 0.099 for the first, -1.39 ± 1 for the second.

Going from QIACDCNLGGKWFTDMCYFA to QIFRLDFDARDSWAKMLESL, the amyloid nucleation score rises from -0.94 ± 0.55 to 0.536 ± 0.12.

QIIVLALMMWMGCRRRMERK and QILWYWGREVFSRRDRFCSV are within error of each other in amyloid nucleation score: 0.414 ± 0.65 for the first, 1 ± 0.68 for the second.

Going from QKLLWCYACNVMRARSGSGT to QKWVF, the amyloid nucleation score falls from 7.18 ± 0.044 to -0.76 ± 0.31.

First: QLAYNEDMSVVGFCYIWYYG
Second: QLCFA
The amyloid nucleation score of the first is higher: 6.456 ± 0.048 for the first, -0.031 ± 0.47 for the second.

QLFTMDN and QLRGLVL are within error of each other in amyloid nucleation score: -0.459 ± 0.78 for the first, 0.704 ± 0.44 for the second.

Going from QLRVYEKFKWCQREWRMDRF to QLSFPSVTDLNRLAIIMLRV, the amyloid nucleation score falls from 4.623 ± 0.034 to 1.13 ± 0.4.

Compared with QLVGMD, QLVNMRTCLLSRDLRLLELL is lower in amyloid nucleation score: 0.868 ± 0.27 for the first, -0.318 ± 0.45 for the second.

QLWMTQTRTPSSKIRSKP and QLYLWHCGFLTTDISGSNSS are within error of each other in amyloid nucleation score: 0.641 ± 0.74 for the first, -0.713 ± 0.63 for the second.

First: QLYYMKF
Second: QNRLLDFFSEPTSRS
The amyloid nucleation score of the first is higher: 5.685 ± 0.042 for the first, -1.16 ± 1.1 for the second.

QQGYVTLSNFCGRA and QQLLSMLLFNFQYGCARLYC are within error of each other in amyloid nucleation score: -0.292 ± 0.5 for the first, 0.072 ± 0.44 for the second.

First: QQYPWYWIFIFNIYKYPSVS
Second: QRLYPFYCIGYYITMYVVHC
The amyloid nucleation score of the first is lower: 0.475 ± 0.42 for the first, 2.45 ± 0.13 for the second.

Going from QRPRGLNLRYTDTRWIFYGP to QRYWSAYDTRNLIGE, the amyloid nucleation score falls from 4.37 ± 0.045 to 1.41 ± 0.47.

Going from QSFNGS to QSLHTSANSLLNWNFMSLLT, the amyloid nucleation score rises from -1.2 ± 0.54 to 0.871 ± 0.29.

Going from QSNRKYGETHWFSTCNMHVL to QSNSSRLHSCRGAIVICI, the amyloid nucleation score rises from 0.533 ± 0.45 to 6.751 ± 0.066.

QSSTYLSPRLHTISDIPYNF and QSTFFCTLQLGSKYFKECLS are within error of each other in amyloid nucleation score: -0.781 ± 0.38 for the first, -1.22 ± 0.61 for the second.

Compared with QSTWSHGFKGRSVWRGLTKG, QSVKLFNSPTSAELILGTKE is lower in amyloid nucleation score: 1.66 ± 0.36 for the first, -0.982 ± 0.78 for the second.

Compared with QTLAYTSDKTS, QTRRIRYDWDAPQCGWVVTM is higher in amyloid nucleation score: 0.549 ± 0.45 for the first, 3.82 ± 0.079 for the second.

QTTVHLTSLHMAGSLCV and QVIDTSPRHVMVIYVP are within error of each other in amyloid nucleation score: -0.021 ± 0.79 for the first, -0.307 ± 0.76 for the second.

Compared with QVKMSSYFVLFFAGPPHVSI, QVMMIWCIWDY is higher in amyloid nucleation score: -1.13 ± 0.76 for the first, 6.949 ± 0.042 for the second.

QVWFYIVVMLVTLTGLGQVG and QVWPLCLVAGSSFGRRGVTG are within error of each other in amyloid nucleation score: 1.16 ± 0.61 for the first, 1.18 ± 0.29 for the second.

QWGDYIGAASMW and QYIPMSLNCQLQYGSHAGQE are within error of each other in amyloid nucleation score: -0.767 ± 0.49 for the first, -0.216 ± 0.49 for the second.

Going from QYKIVVELYMLYNISKNVEG to RADVRMFLTRGLKVDFG, the amyloid nucleation score falls from 2.14 ± 0.16 to -0.322 ± 0.49.

Compared with RAIFR, RALCTKVRTLLCFYLGVLWS is higher in amyloid nucleation score: -0.686 ± 0.56 for the first, 0.903 ± 0.74 for the second.

RALVRLHSDYMLWRFMVADS and RALVSRCRVCADKSPASSCD are within error of each other in amyloid nucleation score: 0.399 ± 0.42 for the first, -0.411 ± 0.45 for the second.

Going from RANFSGTKLLVNTECLWLSV to RAVLFAVVKQM, the amyloid nucleation score falls from 2.35 ± 0.17 to 0.874 ± 0.42.

Going from RAWSIAWYAYPFLIREFECN to RCGCHDCVFLR, the amyloid nucleation score falls from 3.35 ± 0.079 to -0.202 ± 0.46.

Going from RCHRNFVSWVEDLGRRSIGV to RCILASAGWAIVGKNCEAPQ, the amyloid nucleation score falls from 4.53 ± 0.051 to 0.647 ± 0.26.

Going from RCLNQTTYRNNSPCAVLWCM to RCMGPIVPFDVNS, the amyloid nucleation score falls from 7.028 ± 0.058 to -0.704 ± 0.33.

First: RCPLHPLGGLYTIWSDYLRL
Second: RCRISVWVVGSCLSRMYG
The amyloid nucleation score of the first is higher: 5.82 ± 0.075 for the first, 4.29 ± 0.056 for the second.

First: RCRPFFPRNVFSRVENIYHA
Second: RCRVFYQNHIYLGFLKCNQS
The amyloid nucleation score of the first is lower: -0.602 ± 1.1 for the first, 1.42 ± 0.16 for the second.

Compared with RCSCPANGFLMGQLAVMS, RCSTFFEYSQTIPHYLVTLF is lower in amyloid nucleation score: 2.83 ± 0.12 for the first, -0.91 ± 0.44 for the second.

RCVGNYIWIKAFPMCLMTRC and RCYPS are within error of each other in amyloid nucleation score: -0.825 ± 1.1 for the first, 0.277 ± 0.17 for the second.

RDDVRRVRPLGSVVQDDSDG and RDQFTISETRNAVDMDWKSK are within error of each other in amyloid nucleation score: 0.882 ± 0.18 for the first, 0.007 ± 1.1 for the second.

Work on RDSTVFKIYCWPYNN yielded an amyloid nucleation score of 6.493 ± 0.05.

For QKGYN, the amyloid nucleation score was “inactive”.
With QMEDSMYLNALRGVSWVTKL the amyloid nucleation score was “inactive”.
In the case of QRSNGTNYHPPYKMKISHRP, the amyloid nucleation score is reported as “inactive”.
With QTRTRNLLIAQVECRGRSSW the amyloid nucleation score was “inactive”.
In the case of QYALLVY, the amyloid nucleation score is reported as “inactive”.
With RCLWYKACMRPF the amyloid nucleation score was “inactive”.
In the case of RDNCVWYTGHSLKRMRIAKA, the amyloid nucleation score is reported as “inactive”.
